# Measurements from PMC11234873 (Chemical Science, 2024).
# Assay: High-throughput protein phase separation
# Format: physicochemical
# Conditions: 25 μM Hsp90α; 96 LLPS-inducing conditions, sum of averaged grades of 15 subzones
substance,measurement,value
"Hsp90α: full-length human Hsp90α (UniProt P07900), N-terminal 6×-His tag, expressed in E. coli",phase separation score (PPS score),3.1
